# Measured values: publication PMC2783993 (Biotechnology progress, 2009)
# B1: bovine hemoglobin β globin chain (natural protein)
# chain: not shown
# Target: the molecule itself
# Assay: LC-MS
protein,measurement,value
B1,stoichiometry N,2
